Data set [1] concerns the molecule itself. The experiment in a line: crystal structure; E. coli GuaBΔCBS (28 mg/mL) with 5 mM IMP, vapor diffusion at room temperature, 0.1 M bicine pH 9.0, 20% PEG 6000; crystals soaked with inhibitor; space group I4, one molecule in the asu.
Data set [2] deals with the molecule itself. The experiment in a line: crystal structure; S. aureus GuaBΔCBS (27 mg/mL) with 5 mM IMP, vapor diffusion at room temperature, 0.1 M bicine pH 9.0, 0.1 M NaCl, 30% PEG550 MME; crystals soaked with inhibitor; space group I4, one molecule in the asu.
Data set [3] concerns the molecule itself. The experiment in a line: crystal structure; A. baumannii GuaBΔCBS (21 mg/mL) with 5 mM IMP, vapor diffusion at room temperature, 0.1 M HEPES pH 7.5, 20% isopropanol, 10% PEG4000; crystals soaked with inhibitor; space group P21, eight copies in the asu.

B1: E. coli GuaBΔCBS (L2-S488_ΔE90-R217) (enzyme, Escherichia coli, UniProt P0ADG7 2-488, looked up)
chain: LRIAKEALTFDDVLLVPAHSTVLPNTADLSTQLTKTIRLNIPMLSAAMDTVTEARLAIALAQEGGIGFIHKNMSIERQAEEVRRVKKHLRVGAAVGAGAGNEERVDALVAAGVDVLLIDSSHGHSEGVLQRIRETRAKYPDLQIIGGNVATAAGARALAEAGCSAVKVGIGPGSICTTRIVTGVGVPQITAVADAVEALEGTGIPVIADGGIRFSGDIAKAIAAGASAVMVGSMLAGTEESPGEIELYQGRSYKSYRGMGSLGAMSKGSSDRYFQSDNAADKLVPEGIEGRVAYKGRLKEIIHQQMGGLRSCMGLTGCGTIDELRTKAEFVRISGAGIQESHVHDVTITKESPNYRLGS
notes: GuaB (inosine-5'-monophosphate dehydrogenase) of Escherichia coli, residues L2-S488 with the CBS domains (E90-R217) deleted; Crystallised with IMP and soaked with G1, G2 or G8; one molecule in the asymmetric unit, the tetramer arises from the fourfold axis of space group I4; also called E.c; GuaB; source: E. coli BL21 (DE3) Gold, purified (HisTrap FF, Superdex200 size-exclusion; same protocol as …)
With B1, the “stoichiometry N” value in data set [1] was found to be 4.

B2: S. aureus GuaBΔCBS (W2-F488_ΔE92-R219) (enzyme)
chain: WESKFAKESLTFDDVLLIPAQSDILPKDVDLSVQLSDKVKLNIPVISAGMDTVTESKMAIAMARQGGLGVIHKNMGVEEQADEVQKVKRSLLVAAAIGISKDTDIRAQKLVEAGVDVLVIDTAHGHSKGVIDQVKHIKKTYPEITLVAGNVATAEATKDLFEAGADIVKVGIGPGSICTTRVVAGVGVPQITAIYDCATEARKHGKAIIADGGIKFSGDIIKALAAGGHAVMLGSLLAGTEESPGATEIFQGRQYKVYRGMGSLGAMEKGSNDRYFQEDKAPKKFVPEGIEGRTAYKGALQDTIYQLMGGVRAGMGYTGSHDLRELREEAQFTRMGPAGLAESHPHNIQITKESPNYSF
notes: Crystallised with IMP and soaked with G1, G2 or G8; one molecule in the asymmetric unit, the tetramer arises from the fourfold axis of space group I4; also called S.a; GuaB; source: E. coli BL21 (DE3) Gold, purified (HisTrap FF, Superdex200 size-exclusion; same protocol as A. baumannii GuaBΔCBS)
For the protein B2, the “stoichiometry N” value in data set [2] was determined as 4.

B3: A. baumannii GuaB with CBS domain deletion (M1-G488_ΔM93-R201) (enzyme)
chain: MLTIVQEALTFDDVLLLPAYSTVLPKDVSLKTRLTRGIYLNIPLVSAAMDTVTESRMAIAMAQNGGIGILHKNMDIAAQAAEVRRVKKFEAGKAESYPNSCKDDLGRLRVGAAVGTGADTPSRVEALVEAGVDVIVVDTAHGHSAGVIERVRWVKQNFPQVQVIGGNIATGDAALALLDAGADAVKVGIGPGSICTTRIVAGIGMPQISAIDSVASALKDQIPLIADGGIRFSGDMAKAIGAGASTIMVGSLLAGTEEAPGEVEFFQGRYYKAYRGMGSLGAMAGATGSADRYFQDSKAGAEKLVPEGIEGRVPYKGPMGNIVHQMMGGLRSSMGYTGSAVIEDLRQNAKFVKITSAGMSESHVHDVTITKEAPNYRVG
notes: cloned into a modified pET52b vector; Eight copies in the asymmetric unit (octamer of two tetramers); also called A. baumannii GuaBΔCBS; GuaBΔCBS; source: E. coli BL21 (DE3) Gold, purified (HisTrap FF, Superdex200 size-exclusion)
In the case of B3, the “stoichiometry N” value in data set [3] came to 8.

For orientation: stoichiometry N means a count of units in the complex or per binding partner.
